Measurements: the Immune Epitope Database (IEDB)
Each block holds one sequence with its values, some of them ahead of it.

Assays:
HLA-A*31:01 [1] = experiment: IEDB peptide-MHC binding, purified MHC/direct/fluorescence; filed as Kd, often an IC50 or EC50 that approximates it; ≥ and ≤ were set here for values at or beyond the usual limits of such assays
HLA-A*02:01 = experiment: IEDB peptide-MHC binding, purified MHC/competitive/fluorescence; ≥ and ≤ were set here for values at or beyond the usual limits of such assays
HLA-A*30:01 = experiment: IEDB peptide-MHC binding, purified MHC/competitive/radioactivity; filed as Kd, often an IC50 or EC50 that approximates it; ≥ and ≤ were set here for values at or beyond the usual limits of such assays
HLA-A*32:01 = experiment: as above
HLA-A*24:02 = experiment: IEDB peptide-MHC binding, purified MHC/competitive/fluorescence; ≥ and ≤ were set here for values at or beyond the usual limits of such assays
HLA-A*01:01 [2] = experiment: IEDB peptide-MHC binding, purified MHC/competitive/radioactivity; filed as Kd, often an IC50 or EC50 that approximates it; ≥ and ≤ were set here for values at or beyond the usual limits of such assays
HLA-B*35:01 = experiment: as above
HLA-A*26:01 = experiment: as above; settings: source organism: Dengue virus 2 Jamaica/1409/1983
HLA-A*03:01 [3] = experiment: IEDB peptide-MHC binding, purified MHC/direct/fluorescence; filed as Kd, often an IC50 or EC50 that approximates it; ≥ and ≤ were set here for values at or beyond the usual limits of such assays
HLA-A*11:01 [4] = experiment: as above
HLA-A*01:01 [5] = experiment: as above
HLA-B*07:02 = experiment: as above; settings: source organism: Human herpesvirus 4 strain B95-8
HLA-A*69:01 = experiment: as above; settings: source organism: Human herpesvirus 4 strain B95-8
HLA-B*27:05 = experiment: as above; settings: source organism: Mammarenavirus juninense
HLA-A*33:01 = experiment: IEDB peptide-MHC binding, purified MHC/competitive/radioactivity; filed as Kd, often an IC50 or EC50 that approximates it; ≥ and ≤ were set here for values at or beyond the usual limits of such assays; settings: source organism: Mammarenavirus machupoense
HLA-A*68:01 = experiment: as above; settings: source organism: Mammarenavirus machupoense
HLA-A*03:01 [6] = experiment: as above; settings: source organism: Mammarenavirus machupoense
HLA-A*31:01 [7] = experiment: as above; settings: source organism: Mammarenavirus machupoense
HLA-A*11:01 [8] = experiment: as above; settings: source organism: Mammarenavirus machupoense
HLA-A*02:03 = experiment: as above
HLA-A*02:02 = experiment: as above
HLA-A*02:06 = experiment: as above
[9] = source organism: Zaire ebolavirus
[10] = source organism: Vaccinia virus WR
[11] = source organism: Dengue virus 1 Brazil/97-11/1997
[12] = source organism: Vaccinia virus
[13] = source organism: Dengue virus 4 Philippines/H241/1956
[14] = source organism: Dengue virus 3 Martinique/1243/1999
[15] = source organism: Sudan ebolavirus
[16] = source organism: Orthohantavirus hantanense
[17] = source organism: Vaccinia virus Copenhagen
[18] = source organism: Francisella tularensis subsp. tularensis FSC198
[19] = source organism: Vibrio vulnificus

Sequence: KCYGVSATK
Kd (HLA-A*31:01 [1]; source organism: SARS-CoV1): 3520 nM

Sequence: KLGLITNTI
IC50 (HLA-A*02:01; [9]): 1920 nM

Sequence: KLRCRNTEA
Kd (HLA-A*30:01; [10]): 14.2 nM

Sequence: KQWFLDLPLP
Kd (HLA-A*30:01; [11]): 9590 nM

Sequence: KTKIDIIFA
Kd (HLA-A*30:01; [12]): 10 nM

Sequence: KTMTTVYIL
Kd (HLA-A*32:01; [10]): 13.9 nM

Sequence: KVKYEGAGA
Kd (HLA-A*30:01; [13]): 123 nM

Sequence: KVVRVQRPTP
Kd (HLA-A*30:01; source organism: Dengue virus 2 Jamaica/1409/1983): 122 nM

Sequence: KWKRQLNSL
Kd (HLA-A*30:01; [13]): 290 nM

Sequence: LESRFTPQF
IC50 (HLA-A*24:02; [9]): 16200 nM

Sequence: LFDLDEDDE
IC50 (HLA-A*02:01; [9]): ≥ 212000 nM

Sequence: LIEWAMEKS
IC50 (HLA-A*02:01; [12]): ≥ 408000 nM

Sequence: LIGKEEYVDY
Kd (HLA-A*01:01 [2]; [13]): 7910 nM

Sequence: LIGNEEFLDY
Kd (HLA-A*01:01 [2]; [14]): 1670 nM

Sequence: LINFLLRSI
Kd (HLA-A*32:01; [10]): 254 nM

Sequence: LLYFKVFGI
Kd (HLA-A*32:01; [10]): ≥ 37400 nM

Sequence: LNDTIHLHQ
IC50 (HLA-A*24:02; [15]): 34000 nM

Sequence: LPEYGTLGLE
Kd (HLA-B*35:01; [14]): 4480 nM

Sequence: LTAGLSVQQ
IC50 (HLA-A*02:01; [9]): ≥ 298000 nM

Sequence: LTILIRTGLL
Kd (HLA-A*26:01): 8470 nM

Sequence: LTKRFSLGM
Kd (HLA-A*26:01): ≥ 31800 nM

Sequence: LTSRETALM
Kd (HLA-A*01:01 [2]; [13]): 1800 nM

Sequence: LVKLHSGKDV
Kd (HLA-A*30:01; [11]): 5940 nM

Sequence: MALIVSIFK
Kd (HLA-A*30:01; [12]): 896 nM

Sequence: MLTPINEEA
IC50 (HLA-A*02:01; [9]): 780 nM

Sequence: MLYILGLFK
Kd (HLA-A*03:01 [3]; [16]): 102 nM | Kd (HLA-A*11:01 [4]; [16]): 18.6 nM

Sequence: MPPLRFLGED
Kd (HLA-B*35:01; [13]): 15200 nM

Sequence: NLTSTWVMY
Kd (HLA-A*01:01 [2]; source organism: Dengue virus 4 Dominica/814669/1981): 1990 nM

Sequence: NSDEQSLEY
Kd (HLA-A*01:01 [5]; source organism: Francisella tularensis subsp. holarctica LVS): ≤ 1 nM

Sequence: QPRAPIRPI
Kd (HLA-B*07:02): 161 nM | Kd (HLA-A*69:01): 2540 nM

Sequence: QRKKTGKPSI
Kd (HLA-A*30:01; [14]): 1150 nM

Sequence: QTGIQRTVFF
Kd (HLA-A*01:01 [2]; [13]): ≥ 70400 nM

Sequence: RDKFRKSSF
IC50 (HLA-A*24:02; [15]): 35700 nM

Sequence: RLLLNRFTM
Kd (HLA-A*32:01; [14]): 33.2 nM

Sequence: RRVAHSSLY
Kd (HLA-B*27:05): 170 nM

Sequence: RTAPPSLYGR
Kd (HLA-A*30:01; source organism: Mammarenavirus machupoense): 759 nM | Kd (HLA-A*33:01): 2390 nM | Kd (HLA-A*68:01): 10.2 nM | Kd (HLA-A*03:01 [6]): 16.2 nM | Kd (HLA-A*31:01 [7]): 1.59 nM | Kd (HLA-A*11:01 [8]): 8.92 nM

Sequence: RTENFVLSI
Kd (HLA-A*32:01; [10]): 1.62 nM

Sequence: RTRYLPSLV
Kd (HLA-A*30:01; [17]): 0.485 nM

Sequence: RTSFAFQAI
Kd (HLA-A*32:01; [10]): 3.78 nM

Sequence: RTWFHGSLY
Kd (HLA-A*03:01 [3]; source organism: Cryptosporidium parvum): 13.1 nM

Sequence: RVTDMAPFK
Kd (HLA-A*03:01 [3]; source organism: Listeria monocytogenes): 404 nM

Sequence: SFSSGWSPR
Kd (HLA-A*03:01 [3]; [18]): ≥ 20000 nM | Kd (HLA-A*31:01 [1]; [18]): 3.4 nM

Kd (HLA-A*01:01 [5]; source organism: Homo sapiens): 4760 nM
Sequence: SSECQGEML

Sequence: SSNNVSSSI
Kd (HLA-A*32:01; [17]): 155 nM

Sequence: STFIMLEGE
IC50 (HLA-A*02:01; [17]): ≥ 434000 nM

Sequence: STINICLPY
Kd (HLA-A*32:01; [10]): 31.5 nM

Sequence: SWLITSGFR
Kd (HLA-A*03:01 [3]; source organism: Cowpox virus): ≥ 20000 nM | Kd (HLA-A*31:01 [1]; source organism: Cowpox virus): 1100 nM

Sequence: TDFHERPVI
IC50 (HLA-A*24:02; source organism: Variola virus): 408 nM

Sequence: TFKDESIFI
IC50 (HLA-A*24:02; [17]): 328 nM

Sequence: TITETAATI
IC50 (HLA-A*02:01; [15]): 44900 nM | IC50 (HLA-A*24:02; [15]): 48400 nM

Sequence: TQMGGWFQK
Kd (HLA-A*03:01 [3]; [19]): 848 nM | Kd (HLA-A*11:01 [4]; [19]): 43.9 nM

Sequence: TSITQKGIIF
Kd (HLA-A*01:01 [2]; [11]): 7350 nM

Sequence: VLEENMDVEI
Kd (HLA-A*01:01 [2]; [11]): ≥ 46500 nM

Sequence: VTTWEDVPYL
Kd (HLA-A*01:01 [2]; source organism: Dengue virus 3 Singapore/8120/1995): 10200 nM

Sequence: WTTLLSLTF
Kd (HLA-A*01:01 [2]; [11]): 11200 nM

Sequence: YLRLYIILA
Kd (HLA-A*02:03; [17]): 52.4 nM | Kd (HLA-A*02:02; [17]): 8.26 nM | Kd (HLA-A*02:06; [17]): 4180 nM

Sequence: YMSNLFDIPL
Kd (HLA-A*02:03; [10]): 10.2 nM | Kd (HLA-A*02:02; [10]): 19.2 nM | Kd (HLA-A*02:06; [10]): 127 nM

Sequence: YRFLVINRL
IC50 (HLA-A*24:02; [10]): 900 nM

Sequence: YTISSESLV
Kd (HLA-A*02:03; [10]): 37.6 nM | Kd (HLA-A*02:02; [10]): 522 nM | Kd (HLA-A*02:06; [10]): 53.6 nM

Sequence: YTVEFDRDKV
Kd (HLA-A*02:03; [10]): 154 nM | Kd (HLA-A*02:02; [10]): 82.6 nM | Kd (HLA-A*02:06; [10]): 22 nM
